The assay has as its target ER peptide mimic. In words: immunostaining of ER peptide mimic spots on a membrane, colour scored 1-4+.

As for “1D5 anti-human estrogen receptor mouse monoclonal antibody”, the Staining intensity (1-4+) was 4 1-4+ scale.

The record behind these values is patent US7011940.
